Results reported in doi:10.1101/2024.10.29.618823 (bioRxiv, 2024).
Where two headings read alike, the source gives them in different places.

Key:
Experiment in all cases: cryo-EM structure
cryo-EM structure [1] = target: the molecule itself
cryo-EM structure [2] = target: the molecule itself; remark: listed apart in the source
cryo-EM structure [3] = target: the molecule itself; remark: listed apart in the source

B1: Csy3 (natural protein)
chain: MSKPILSTASVLAFERKLDPSDALMSAGAWAQRDASQEWPAVTVREKSVRGTISNRLKTKDRDPAKLDASIQSPNLQTVDVANLPSDADTLKVRFTLRVLGGAGTPSACNDAAYRDKLLQTVATYVNDQGFAELARRYAHNLANARFLWRNRVGAEAVEVRINHIRQGEVARAWRFDALAIGLRDFKADAELDALAELIASGLSGSGHVLLEVVAFARIGDGQEVFPSQELILDKGDKKGQKSKTLYSVRDAAAIHSQKIGNALRTIDTWYPDEDGLGPIAVEPYGSVTSQGKAYRQPKQKLDFYTLLDNWVLRDEAPAVEQQHYVIANLIRGGVFGEAEEK
- stoichiometry N (cryo-EM structure [1]): 6
- stoichiometry N (cryo-EM structure [2]): 5
- stoichiometry N (cryo-EM structure [3]): 4
